B1: BRO1 domain-containing protein BROX (Homo sapiens), Q5VW32 (parent)
chain: MTHWFHRNPLKATAPVSFNYYGVVTGPSASKICNDLRSSRARLLELFTDLSCNPEMMKNAADSYFSLLQGFINSLDESTQESKLRYIQNFKWTDTLQGQVPSAQQDAVFELISMGFNVALWYTKYASRLAGKENITEDEAKEVHRSLKIAAGIFKHLKESHLPKLITPAEKGRDLESRLIEAYVIQCQAEAQEVTIARAIELKHAPGLIAALAYETANFYQKADHTLSSLEPAYSAKWRKYLHLKMCFYTAYAYCYHGETLLASDKCGEAIRSLQEAEKLYAKAEALCKEYGETKGPGPTVKPSGHLFFRKLGNLVKNTLEKCQRENGFIYFQKIPTEAPQLELKANYGLVEPIPFEFPPTSVQWTPETLAAFDLTKRPKDDSTKPKPEEEVKPVKEPDIKPQKDTGCYIS
partner: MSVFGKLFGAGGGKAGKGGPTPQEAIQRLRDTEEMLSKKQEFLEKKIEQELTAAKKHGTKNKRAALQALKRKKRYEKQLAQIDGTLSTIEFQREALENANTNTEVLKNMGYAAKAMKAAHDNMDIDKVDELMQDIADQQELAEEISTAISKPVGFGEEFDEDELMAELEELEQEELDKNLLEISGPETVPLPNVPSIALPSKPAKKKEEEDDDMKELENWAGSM
B2: BRO1 domain-containing protein BROX (Homo sapiens), Q5VW32 (parent)
chain: B1 chain
B3: Charged multivesicular body protein 4b (Homo sapiens), Q9H444 (parent)
chain: B1 partner

In one test the parent is B1. The conditions noted are these: with chm4b_human CHMP4B.
As for MTHWFHRNPLKATAPVSFNYYGVVTGPSASKICNDLRSSRARLLELFTDLSCNPEMMKNAADSYFSLLQGFINSLDESTQESKLRYIQNFKWTDTLQGQVPSAQQDAVFELISMGFNVALWYTKYASRLAGKENITEDEAKEVHRSLKIAAGIFKHLKESHLPKLITPAEKGRDLESRLIEAYVIQCQAEAQEVTIARAIELKHAPGDIAADAYETANFYQKADHTLSSLEPAYSAKWRKYLHLKMCFYTAYAYCYHGETLLASDKCGEAIRSLQEAEKLYAKAEALCKEYGETKGPGPTVKPSGHLFFRKLGNLVKNTLEKCQRENGFIYFQKIPTEAPQLELKANYGLVEPIPFEFPPTSVQWTPETLAAFDLTKRPKDDSTKPKPEEEVKPVKEPDIKPQKDTGCYIS [L208D;L212D], the “effect of a mutation on the interaction” value is reported as “disrupting interaction strength”.

The variants in a further test derive from B2. The conditions noted are these: with CHMP5, Q9NZZ3-1.
CHMP5, Q9NZZ3-1, sequence (Q9NZZ3 whole entry): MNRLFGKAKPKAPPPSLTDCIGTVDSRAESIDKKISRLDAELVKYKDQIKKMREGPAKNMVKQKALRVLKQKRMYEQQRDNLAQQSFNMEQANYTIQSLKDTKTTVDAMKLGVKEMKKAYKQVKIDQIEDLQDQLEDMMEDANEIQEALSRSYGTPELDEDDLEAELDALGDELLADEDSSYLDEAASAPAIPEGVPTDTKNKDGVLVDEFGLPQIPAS
Consider MTHWFHRNPLKATAPVSFNYYGVVTGPSASKICNDLRSSRARLLELFTDLSCNPEMMKNAADSYFSLLQGFINSLDESTQESKLRYIQNFKWTDTLQGQVPSAQQDAVFELISMGFNVALWYTKYASRLAGKENITEDEAKEVHRSLKIAAGIFKHLKESHLPKLITPAEKGRDLESRLIEAYVIQCQAEAQEVTIARAIELKAAPGLIAALAYETANFYQKADHTLSSLEPAYSAKWRKYLHLKMCFYTAYAYCYHGETLLASDKCGEAIRSLQEAEKLYAKAEALCKEYGETKGPGPTVKPSGHLFFRKLGNLVKNTLEKCQRENGFIYFQKIPTEAPQLELKANYGLVEPIPFEFPPTSVQWTPETLAAFDLTKRPKDDSTKPKPEEEVKPVKEPDIKPQKDTGCYIS [H204A], for which the “effect of a mutation on the interaction” value is reported as “disrupting interaction strength”.

With MTHWFHRNPLKATAPVSFNYYGVVTGPSASKICNDLRSSRARLLELFTDLSCNPEMMKNAADSYFSLLQGFINSLDESTQESKLRYIQNFKWTDTLQGQVPSAQQDAVFELISMGFNVALWYTKYASRLAGKENITEDEAKEVHRSLKIAAGIFKHLKESHLPKLITPAEKGRDLESRLIEAYVIQCQAEAQEVTIARAIELKHAPGDIAADAYETANFYQKADHTLSSLEPAYSAKWRKYLHLKMCFYTAYAYCYHGETLLASDKCGEAIRSLQEAEKLYAKAEALCKEYGETKGPGPTVKPSGHLFFRKLGNLVKNTLEKCQRENGFIYFQKIPTEAPQLELKANYGLVEPIPFEFPPTSVQWTPETLAAFDLTKRPKDDSTKPKPEEEVKPVKEPDIKPQKDTGCYIS [L208D;L212D], the “effect of a mutation on the interaction” value is given as “disrupting interaction strength”.

As to MTHWFHRNPLKATAPVSFNYYGVVTGPSASKICNDLRSSRARLLELFTDLSCNPEMMKNAADSYFSLLQGFINSLDESTQESKLRYIQNFKWTDTLQGQVPSAQQDAVFELISMGFNVALWYTKYASRLAGKENITEDEAKEVHRSLKIAAGIFKHLKESHLPKLITPAEKGRDLESRLIEAYVIQCQAEAQEVTIARAIELKHAPGLIAALAYETANFYQKADHTLSSLEPAYSAKWRKYLHLKMCFYTAYAYCYHGETLLASDKCGEAIRSLQEAEKLYAKAEALCKEYGETKGPGPTVKPSGHLFFRKLGNLVKNTLEKCQRENGFIYFQKIPTEAPQLELKANAGLVEPIPFEFPPTSVQWTPETLAAFDLTKRPKDDSTKPKPEEEVKPVKEPDIKPQKDTGCYIS [Y348A], the “effect of a mutation on the interaction” value is “disrupting interaction strength”.

A further test covers variants of B3. The conditions noted are these: with brox_human BROX.
For the variant MSVFGKLFGAGGGKAGKGGPTPQEAIQRLRDTEEMLSKKQEFLEKKIEQELTAAKKHGTKNKRAALQALKRKKRYEKQLAQIDGTLSTIEFQREALENANTNTEVLKNMGYAAKAMKAAHDNMDIDKVDELMQDIADQQELAEEISTAISKPVGFGEEFDEDELMAELEELEQEELDKNLLEISGPETVPLPNVPSIALPSKPAKKKEEEDDDMKEAENWAGSM [L217A], the “effect of a mutation on the interaction” value was “decreasing interaction strength”.

Regarding MSVFGKLFGAGGGKAGKGGPTPQEAIQRLRDTEEMLSKKQEFLEKKIEQELTAAKKHGTKNKRAALQALKRKKRYEKQLAQIDGTLSTIEFQREALENANTNTEVLKNMGYAAKAMKAAHDNMDIDKVDELMQDIADQQELAEEISTAISKPVGFGEEFDEDELMAELEELEQEELDKNLLEISGPETVPLPNVPSIALPSKPAKKKEEEDDDMKELENAAGSM [W220A], the “effect of a mutation on the interaction” value is reported as “decreasing interaction strength”.

(Values after IntAct's records for PubMed 22484091.)
